The series is described as follows: soluble on expression in E. coli; label from the status in PepcDB or PDB records.
For the sequence “MIKNRQEILFLYDVTDANPNGDPLDENKPRIDEETGINIVTDVRLKRTIRDYLYDYKGFDGSNGKDIFVREIESEKGGIKDGKARAKDFNENVDEILQKAIDIRLFGGVIPLDKASITFTGPVQFNMGRSLNKVNLKHIKGTGAFASGEGKAQKTFREEYIVPYSIIAFHGIINENAAKRTGLTDEDVDLLDDAMWNGTKNLITRSKMGHMPRLMLRVVYKPGENFFIGDLQNRISLNFDVEEEKIRSIKDFSIKLDELIDELANYGDKIEKVVFVADKNLRLSYKGREINLKDIKDIRFEEKTF”, the “soluble on expression in E. coli” value is reported as “soluble”.

As to “MIKWGFIGCGEVTKTKSGPAFQKVEHSEVVAVMSRDGAKAKAYAKERGIRKWYDDAQELIDDPEVNAIYIATPPSSHATYAIMAMKAGKPAYIEKPMAVTYEECTRINRISKETGVPCFVAYYRRYLPYFQKVKEMVENGSIGNVINVQVRFAQPPRDLDYNRENLPWRVQADIAGGGYFYDLAPHQIDLLQDMFGCILEASGYKSNRGGLYPAEDTLSACFQFDNGLVGSGSWCFVAHDSAREDRIEIIGDKGMICFSVFTYEPIGLHTERGREEICIGNPEHVQQPLIQAVVDHLLGKSVCSCDGESATLTNWVMDKILGKL”, the “soluble on expression in E. coli” value is reported as “not soluble”.

“MIKYSIRGENIEVTEAIREYVETKLSKVEKYFNEAQELDTRVNLKVYREKTAKVEVTILIDSITLRAEDVSQDMYGSIDLVVDKIERQIRKNKTKIAKKYREKIPASQVFTTEFEAEPDEEAVSQRIVRTKNVNLKPMDVEEALLQMELLGHDFFIYTDAEDNTTNVLYKREDGELGLIEAKGNLEHHHHHH”: the “soluble on expression in E. coli” value is “soluble”.

For “MILAIFSLRLLLIPTIDEPESIVTQLENAIDPVTQVPDFSAITDVAEKKRAFFDFLRPIVQQQNAIIASEREFITDMLAIVENGNALSDSQSAQLNQIFDKYLYAARNVDAKSLNSLLKRVDIIPESMVLIQAANESGWGSSRFAREGFNFFGEWCFSNGCGIVPSSRGSGKTHEVKIFPSVDASVSSYMRNLNSNTAYNLFRSIRADLRAQEAELNADQLIYGLVNYSERQEAYIDELLDMLRHNAKYLVKADV”, the “soluble on expression in E. coli” value is given as “soluble”.

With “MILFDKNKRILKKYAKMVSKINQIESDLRSKKNSELIRLSMVLKEKVNSFEDADEHLFEAFALVREAARRTLGMRPFDVQVMGGIALHEGKVAEMKTGEGKTLAATMPIYLNALIGKGVHLVTVNDYLARRDALWMGPVYLFLGLRVGVINSLGKSYEVVWKNPDLARKAIEENWSVWPDGFNGEVLKEESMNKEAVEAFQVELKEITRKEAYLCDVTYGTNNEFGFDYLRDNLVLDYNDKVQRGHFYAIVDEADSVLIDEARTPLIISGPSKESPSVYRRFAQIAKKFVKDKDFTVDEKARTIILTEEGVAKAEKIIGVENLYDPGNVSLLYHLINALKALHLFKKDVDYVVMNGEVIIVDEFTGRLLPGRRYSGGLHQAIEAKEGVPIKEESITYATITFQNYFRMYEKLAGMTGTAKTEESEFVQVYGMEVVVIPTHKPMIRKDHDDLVFRTQKEKYEKIVEEIEKRYKKGQPVLVGTTSIEKSELLSSMLKKKGIPHQVLNAKYHEKEAEIVAKAGQKGMVTIATNMAGRGTDIKLGPGVAELGGLCIIGTERHESRRIDNQLRGRAGRQGDPGESIFFLSLEDDLLRIFGSEQIGKVMNILKIEEGQPIQHPMLSKLIENIQKKVEGINFSIRKTLMEMDDVLDKQRRAVYSLRDQILLEKDYDEYLKDIFEDVVSTRVEEFCSGKNWDIESLKNSLSFFPAGLFDLDEKQFSSSEELHDYLFNRLWEEYQRKKQEIGEDYRKVIRFLMLRIIDDHWRRYLEEVEHVKEAVQLRSYGQKDPIVEFKKETYYMFDEMMRRINDTIANYVLRVVKVSEKDEKEAKEELGKIRLVHEEFNLVNRAMRRATEKKKKKDGLHSFGRIRVKR”, the “soluble on expression in E. coli” value is “soluble”.

As for “MILIFEEHRMQLSSEQCDFFFTNGYLVINNFFSESVCDLLKQRIETLLENNQAEIPKTIFSTQTNEHAKKQYFLDSGDKIHYFFEPGAFDEAGDWLRPFNQSINKIGHALHELDPVFRQYSRDDRIKKIAHQLGLKTLGLVQSMYIFKQPGIGAEVLCHQDSTYIFGEDSDALGFWFAIEDATLENGCLEVIPSPCTTPLKQRMFRRENEIYFENFDSSPWPEENSVPLPVKKGALIILHGRVPHKSQANFSNQSRHAYTLHLVDISLPYPEKNWLQWPNGIPCLLEHHHHHH”, the “soluble on expression in E. coli” value was “soluble”.

“MILIRLEPGMDLMEEMRAAFSEGVVVTGIGSLHRVRIRTADESELTVEGPLEILSLQGTISPDGVHIHIAVADSEGRVTGGHLRGDSPVRTTAEIAVIPYQGVLRRVMDRRTGYRELLVLE”: the “soluble on expression in E. coli” value is given as “not soluble”.

Consider “MILLLAGTSDARELAVMIQQAGYNVTATVVTDHAAEQLRSAGIRAYVGRLDASQLADLAKAEGAKAIVDASHPFAEEASKNAMQAAADAGLPYIRYERQASSFSSEKVTFVDSYEEAADLAAEKGGVVMLTTGSKTIDIFAARLIGRPDVKVIARMLPRKDNLDKCERLGFSQEQIVMMQGPFTKELDRALYRHFGVTVVVTKESGKVGFVDEKIAAAEELGIDVIVIRRPRLSYGIVHHDFAGVLDALKQHAPLPTV”, for which the “soluble on expression in E. coli” value is “not soluble”.

For “MILNKKKLYFETQAFTDKLINEISINMSKRKELINCYDIEAYVKETENIDFFDYPFKKQSKKLIWGSVTKIGDVTMVATAQHLKIEIKNFTKMHEIIHHYFDYTTDMPNNEKSFDTLLIKKGYLPEDYPKEFRANKGAGMLLINKKALKYAFSTYDDLEKMASFFNVNDIVLKIRILDELIYSHNLSYKQANLIYNSYYFQQQTQLKEILLK”, the “soluble on expression in E. coli” value is reported as “not soluble”.

Consider “MILNNESNKKKKFEQFFIMTYPKVKAFAWKLLKSEEDAEDIAQDIFAKLWTNPEIWENQETWNSYIYTMVRNHIYNFLKHKSIRQTYQEQCTKEEPAISETDIHDQLYAKESELLIKLTIANMPEQRRKIFRMSRTQEKSNQEIADELNISIRTVERHIYLALIDLKKVLLTLFFFYLG”, for which the “soluble on expression in E. coli” value was “not soluble”.

As for “MILQELPDLEELFLCLNDYETVSCPSICCHSLKLLHITDNNLQDWTEIRKLGVMFPSLDTLVLANNHLNAIEEPDDSLARLFPNLRSISLHKSGLQSWEDIDKLNSFPKLEEVRLLGIPLLQPYTTEERRKLVIARLPSVSKLNGSVVTDGEREDSERFFIRYYVDVPQEEVPFRYHELITKYGKLEPLAEVDLRPQSSAKVEVHFNDQVEEMSIRLDQTVAELKKQLKTLVQLPTSNMLLYYFDHEAPFGPEEMKYSSRALHSFGIRDGDKIYVESKTK”, the “soluble on expression in E. coli” value is “soluble”.

On to “MILRRPSQADKEAILDMMGEFEREKSVHDGGFWNADNFIYEEWLEENLQSEAGLNIPENWVPAIQLVSFNESGHALGFLHLRLRLNGRLLEKGGHIGYSIRPSERGKGYAKESLRQGLQVAKEKNIQRALVTCSTENPASRAVILANGGQLEDICNETERYWIDLE”, for which the “soluble on expression in E. coli” value is “not soluble”.

Regarding “MIMDLASLRAQQIELASSVIREDRLDKDPPDLIAGADVGFEQGGEVTRAAMVLLKYPSLELVEYKVARIATTMPYIPGFLSFREYPALLAAWEMLSQKPDLVFVDGHGISHPRRLGVASHFGLLVDVPTIGVAKKRLCGKFEPLSSEPGALAPLMDKGEQLAWVWRSKARCNPLFIATGHRVSVDSALAWVQRCMKGYRLPEPTRWADAVASERPAFVRYTANQPLEHHHHHH”, the “soluble on expression in E. coli” value was “soluble”.

With “MIMKVGIMSDTHDNLSAIRLAVEFFNREGVNLVLHAGDFVAPFVAKELSNLKAPLKGVFGNNDGEREGLREKLGIKDDILTLNLDGLKVVMLHGTDERVVEAFAKSQLYDIVIRGHTHKYGIQEVGRTIVVNPGEVCGYLTGIKSVALLNTTEREVRIINLKTGEILGIISLLEHHHHHH”, the “soluble on expression in E. coli” value is listed as “not soluble”.

For “MIMLIKKLLETTAAAEEKARQLAEMETDEAWAVYLAEAERQRKLWQYVHYLVAGANADGRAEREQSKAGAPRCDLLQAMAAAEWEKAMLCQNVCQSLNGAAKQAVDAVFRQALRYSGQFLAMAYDERARQTAD”, the “soluble on expression in E. coli” value is listed as “not soluble”.

With “MINHECINQPYGRILKFSRVQAKEMLTADELKENFAKNGQTLAQWARENGFKPRDVYLVIGGQRKGNYGKGHEIAKKLGLK”, the “soluble on expression in E. coli” value is “not soluble”.

With “MINKDEEVANRFSDPSKKLVEYVTDFSDMRDEDIELTKPIYENYGNFQLLNETGIIRTDEEIKELYNCKGEFGSTDEVTDMSF”, the “soluble on expression in E. coli” value is on record as “not soluble”.

For the sequence “MIPDFQTLMLPLLKCVSDGQEHKYRDIIEHLAAEFEVTDEERKELLASGSKAVFDNRVGWARTYLKKAGLLDSPKRAILIISDLGREILSKNPPKIDTKYLRRFPAFIEFQNGYRNDGETEEESITEKIHEQTPEEVLDKAYQRIRKSLASELLNKVIDLSPAFFERLVVELLVKMGYGGSIKDAGKALGKSGDEGIDGTIKEDKLGLDIIYIQAKRWRPGNVVGRPELQKFVGALAGQGAKKGIFITTSNFTKEALTYTPRNETKIVLIDGEQLTQLMIDYNLGCTTQQTYELKKLDSDYFGEE”, the “soluble on expression in E. coli” value is “not soluble”.

Turning to “MIPLPSGTKIWLVAGITDMRNGFNGLAAKVQTTLKDDPMSGHVFIFRGRNGSQVKLLWSTGDGLCLLTKRLERGRFAWPSARDGKVFLTPAQLAMLLEGIDWRQPKRLLTSLTML”, the “soluble on expression in E. coli” value was “not soluble”.

On to “MIQDIKRSSAPAAPAPVTVLKMWPNEMRSQSLEENLDAKLEQFKKEHSPVKERGNCSKTRKISENQPPPSFEVVMAKIRGIQESLKNMEDQMNEEERGKEMPDSTENSFDFSKIWQYFDQTRIEEIRALLKKRQFPDSP”, for which the “soluble on expression in E. coli” value is given as “not soluble”.

Consider “MIQIEDVVVSFDVLREKFLCNLDACKGECCIEGDAGAPVELDEVEKLEEVLPIIWEELSPEARAVIEKQGVVYTDQEGDLVTSIVNNKDCVFTCYDEKGCCYCAIEKAYRDGKTDFYKPVSCHLYPIRIGDYGPYKAVNYHRWDVCKAAVLLGKKENVAVYQFLKEPLIRKFGEKWYQELEVAVKELKAHDMI”, for which the “soluble on expression in E. coli” value is “not soluble”.

“MIRDYKSKLEFLAFYDELTGLPNKNSLIRWLNLKVSQMDCIDTYLIFLEVRDLEKLNVTYGYDLVDELIIHISKRIKDIAGEGNKAFKIGFDRFAIICKSENISDFIERMLSQLLLPYNVNGNLIRVNFNIGAAQIENSNEAAANLMRRCDLALIKAKEEGLNEYVIFKPSIELEHHHHHH”: the “soluble on expression in E. coli” value is listed as “not soluble”.

As to “MIRFCLQCLKTKKACICEWITPITTDIELIILQHPTEAKRPLGTAKILSLSLVNCRTFIGENFSEHSELNQLLADDSYHHQVLFLDNESKAIGTDKALLQKKQRVILLDGTWKKAYKMWQLSTNLHSLPKVHLNTDLSGNYRVRKAPKDNALSTAEAGYHILTQLDNDCVASNNVEKFDSILTAFDNMIEFHISQMPEGVFEKNYRSLEHHHHHH”, the “soluble on expression in E. coli” value was “soluble”.

With “MISKHSSRLPIWVLSPREEQQARKNLKTETYKKCANFVQAMADCAKANGMKVFPTCDKQRDEMKSCLLFYQTDEKYLDGERDKIVLEKINKLEKLCQKQSSTK”, the “soluble on expression in E. coli” value is given as “not soluble”.

As for “MISPSKKRTILSSKNINQKPRAVVKGNELRSPSKRRSQIDTDYALRRSPIKTIQISKAAQFMLYEETAEERNIAVHRHNEIYNNNNSVSNENNPSQVKENLSPAKICPYERAFLREGGRIALKDLSVDEFKGYIQDPLTDETIPLTLPLGDKKISLPSFITPPRNSKISIFFTSKHQGQNPETKISRSTDDVSEKKVVRKLSFHVYEDE”, the “soluble on expression in E. coli” value is recorded as “not soluble”.

In the case of “MISTPPVARNIMRCMSDQLKLDQQICFQLYTGSRLMQRMYRVYFDQWGITYSQYLVLLLLWEKDRQTISELSDPLDLDSGTLSPLLRRMEANGFITREHEQSDYRKVVVCLTTRGRRLKTKAKKMNDELNDMLGFDDADLAAVTRVLEKINPSAAI”, the “soluble on expression in E. coli” value was “not soluble”.

The values are drawn from the DeepSol protein solubility set.
